# Article PMC6281676 (Scientific Reports, 2018)
# Experiments:
# [1] = 15 min after 30th intranasal administration of exendin-4 1 mg/mL, L-penetratin 2 mM and insulin 8 IU/mL (1 IU/kg)
# Experimental: (§1) Every morning at 10 AM, mice were anesthetized by an i.p. injection of sodium pentobarbital (50 mg/kg), and restrained in a supine position. […] The untreated control SAMP8 and SAMR1 received intranasal administration of only the vehicle (PBS pH 6.0). After each administration, mice were kept in a supine position for 15 min and then returned to their cages.
# [2] = tested on: hippocampal neuronal cells; experiment: Immunohistological staining of brain specimens with anti-NeuN antibody (neuronal cell counts); format: in vivo, SAMP8 mice; conditions: after 30th intranasal administration of exendin-4 ± L-penetratin ± insulin; 38 weeks of age; n = 4–8
# Experimental: At 15 min after administration, blood samples were taken from the left jugular vein. Immediately after blood withdrawal, the abdominal cavity was opened, and the intravascular content in the brain was flushed by perfusion of ice-cold PBS (pH 7.4) into the left ventricle of the heart at 5.5 mL/min for 5 min using a peristaltic pump (ATTO Corp.). Right afterwards, the brain was fixed by perfusion of ice-cold 4% PFA into the brain at 5.5 mL/min for 10 min. Subsequently, the whole brain was carefully isolated and washed with ice-cold PBS (pH 7.4) and weighed after removal of the water content.
# The right side of the brain obtained as described above was immersed in 4% PFA for 24 h and then moved to ice-cold PBS (pH 7.4) and stored at 4 °C. After removing the PBS, the brain was trimmed coronally to obtain 3-mm slices at the position of Bregma −1.5 mm. […]
# A thin slice at Bregma −2.0 mm was obtained and mounted on a glass slide, deparaffinized, and immersed in citrate buffer for 40 min in a water bath at 98 °C to activate the antigen. […] The stained brain tissue was observed by microscopy (Olympus BX51 and DP71), and the NeuN-positive cell numbers in the hippocampus were analyzed using WinROOF (Mitani Corp., Tokyo, Japan). […]
# [3] = up to 60 min after 29th intranasal administration of exendin-4 and insulin with L-penetratin; tail vein, glucose meter
# Experimental: as §1
# Blood was obtained from the tail vein before and 15, 30, and 60 min after administration, and the blood glucose concentration was measured using a glucose meter (One Touch Ultra View, Johnson & Johnson K.K., Tokyo, Japan).
# [4] = Appearance of mixed solution of peptide drug and penetratin; format: physicochemical; conditions: peptide drug 2.5 mg/mL plus L- or D-penetratin 2.0 mM in PBS pH 6.0 with 0.001% methylcellulose; visual
Substance,"insulin level in plasma ([1]; ELISA, mean ± SEM)",brain concentration of insulin ([1]; human insulin ultrasensitive ELISA),NeuN-positive hippocampal neuronal cell counts [2],blood glucose level [3],appearance of solution after mixing [4]
"insulin: Recombinant human insulin (27.5 IU/mg), Wako",41.1 ± 11.8 μU/mL,less than the lower detection limit,no proliferation effect,> 70 mg/dL,
"HAEGTFTSDVSSYLEGQAAKEFIAWLVKGR-NH2 [GLP-1, glucagon-like peptide-1, incretin peptide, synthesized by Sigma-Genosys]",,,,,clear
